According to US20190055314A1 (ADAGENE, published 2019):

T1: mouse CD137 protein (Biacore) (mouse, UniProt P20334 24-178, limits assumed)
T1 construct: Construct used as SPR analyte not described
T1 sequence: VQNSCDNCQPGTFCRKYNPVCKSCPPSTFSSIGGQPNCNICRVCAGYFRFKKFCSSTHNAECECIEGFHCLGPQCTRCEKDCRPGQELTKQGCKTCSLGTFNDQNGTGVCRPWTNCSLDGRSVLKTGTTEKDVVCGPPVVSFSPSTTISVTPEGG

T2: mouse CD137 fused with human FC fragment (mouse, UniProt P20334 24-178, limits assumed)
T2 construct: also called mouse CD137-Fc; not shown: human Fc fragment
T2 sequence: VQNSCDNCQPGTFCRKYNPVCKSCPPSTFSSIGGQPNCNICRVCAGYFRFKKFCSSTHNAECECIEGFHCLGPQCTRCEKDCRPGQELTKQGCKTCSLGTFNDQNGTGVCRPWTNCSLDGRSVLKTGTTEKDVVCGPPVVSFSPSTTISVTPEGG

T3: full-length mouse CD137 on the cell surface (mouse, UniProt P20334 24-178)
T3 sequence: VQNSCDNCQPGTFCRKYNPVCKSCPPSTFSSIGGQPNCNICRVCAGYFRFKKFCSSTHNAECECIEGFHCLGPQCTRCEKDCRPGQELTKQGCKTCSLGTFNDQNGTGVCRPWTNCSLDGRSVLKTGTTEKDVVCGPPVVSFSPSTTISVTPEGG

T4: Hu_CRD3 (human, limits assumed)
T4 construct: also called human CD137 CRD3
T4 chain: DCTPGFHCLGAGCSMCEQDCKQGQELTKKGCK

T5: rat CD137 on the cell surface (rat, UniProt Q4W8J3 24-258)
T5 sequence: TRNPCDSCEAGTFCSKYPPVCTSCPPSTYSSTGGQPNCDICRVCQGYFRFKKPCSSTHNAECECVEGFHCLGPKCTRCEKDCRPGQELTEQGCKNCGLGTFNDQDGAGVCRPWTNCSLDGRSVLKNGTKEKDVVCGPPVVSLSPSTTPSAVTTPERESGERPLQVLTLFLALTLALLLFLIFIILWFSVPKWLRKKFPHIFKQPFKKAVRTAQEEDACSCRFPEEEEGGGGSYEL


Key:
[1] = molecular target: T6, human CD137-His6 (Sino Biological #10041-H08H) (human, UniProt Q07011 24-186); test: SPR Biacore, IgG
T6 construct: Bought; also called human CD137 protein; not shown: His6 tag

[2] = molecular target: T1, mouse CD137 protein (Biacore); test: SPR Biacore
[3] = molecular target: T2, mouse CD137 fused with human FC fragment; test: ELISA, coated CD137-Fc
[4] = molecular target: T3, full-length mouse CD137 on the cell …; test: flow cytometry, yeast display [Cont.]
Hu_CRD3 = molecular target: T4, Hu_CRD3; test: flow cytometry, yeast display [Cont.]
[5] = molecular target: T5, rat CD137 on the cell surface; test: flow cytometry, HEK293F cells expressing CD137
[6] = molecular target: T3, full-length mouse CD137 on the cell …; test: flow cytometry, HEK293F cells expressing CD137 or mutant

Binder	Kd [1] [nM]	koff [1] [s⁻¹]	kon [1] [M⁻¹ s⁻¹]	further results
AG10082 (antibody, human IgG4 S228P, kappa, V domains shown, also called IgG of Fab 5300) VH: EVQLVESGGGLVQPGGSLRLSCAASGYTFSNYWIHWVRQAPGKGLEWVSYISGDGDTTYYADSVKGRFTISRDNSKNTLYLQLNSLRAEDTAVYYCAREGSTTVAGDWFAYWGQGTLVTVSS VL: DIQLTQSPSSLSASVGDRVTITCRASQGIGSFLGWYQQKPGKAPKLLIYDASSLESGVPSRFSGSGSGTDFTLTISSLQPEDFATYYCQQYYSLVTFGQGTKVEIKR	13	0.0072	560000	–
AG10129 (antibody, human IgG4 S228P, kappa, V domains shown, also called IgG of Fab 5353) VH: EVQLVESGGGLVQPGGSLRLSCAASGFTFSSYWIHWVRQAPGKGLEWVSVISGDGDTTYYADSVKGRFTISRDNSKNTLYLQLNSLRAEDTAVYYCARSRGLVLDAFDYWGQGTLVTVSS VL: DIQLTQSPSSLSASVGDRVTITCRASQSVSGRFLAWYQQKPGKAPKLLIYDASSLESGVPSRFSGSGSGTDFTLTISSLQPEDFATYYCQQYDYWPPYTFGQGTKVEIKR	19	0.006	310000	–
AC1097 (antibody, V domains shown) VH: EVQLVQSGAEVKKPGESLRISCKGSGYSFSTYWISWVRQMPGKGLEWMGKIYPGDSYTNYSPSFQGQVTISADKSISTAYLQWSSLKASDTAMYYCARGYGIFDYWGQGTLVTVSS VL: SYELTQPPSVSVSPGQTASITCSGDNIGDQYAHWYQQKPGQSPVLVIYQDKNRPSGIPERFSGSNSGNTATLTISGTQAMDEADYYCATYTGFGSLAVFGGGTKLTVL	–	–	–	binding result [2]: no binding; binding result [3]: no binding; % in upper right quadrant [4]: 0.59%; Mean [4]: 16200; % in upper right quadrant (Hu_CRD3): 0.22%; Mean (Hu_CRD3): 12700; binding result [5]: no binding (tested: 100 nM (text paragraph 220)); % in upper right quadrant [6]: 0.005%
AG10085 (antibody, human IgG4 S228P, kappa, V domains shown, also called IgG of Fab 5367) VH: EVQLVESGGGLVQPGGSLRLSCAASGFSLSTSGVGVGWIRQAPGKGLEWVSGISGAGDSTYYADSVKGRFTISRDNSKNTLYLQLNSLRAEDTAVYYCAREGSDTVLGDWFAYWGQGTLVTVSS VL: DIQLTQSPSSLSASVGDRVTITCRASQDIRSYLAWYQQKPGKAPKLLIYDASNRATGIPSRFSGSGSGTDFTLTISSLQPEDFATYYCQQGYSIWTFGQGTKVEIKR	54	0.0079	150000	–

Second part, led by results:

Kd [1] [nM]	koff [1] [s⁻¹]	kon [1] [M⁻¹ s⁻¹]	Binder	further results
12	0.0069	570000	AG10083 (antibody, human IgG4 S228P, kappa, V domains shown, also called IgG of Fab 5323) VH: EVQLVESGGGLVQPGGSLRLSCAASGFSLSTSGVGVGWIRQAPGKGLEWIGEIYHSGSTYYSPSLKSRVTISRDNSKNTLYLQLNSLKAEDTAVYYCAREGSDVVTGDWFAYWGQGTLVTVSS VL: DIQLTQSPSSLSASVGDRVTITCRASQGISSVLAWYQQKPGKAPKLLIYDASSLESGVPSRFSGSGSGTDFTLTISSLQPEDFATYYCQQGYSLWTFGQGTKVEIKR	–
6.9	0.0017	240000	AG10081 (antibody, human IgG4 S228P, kappa, V domains shown, also called IgG of Fab 5299) VH: EVQLVESGGGLVQPGGSLRLSCAASGYSISSGHYWGWIRQAPGKGLEWLALIDWYGDKYYSTSLKSRLTISRDNSKNTLYLQLNSLRAEDTAVYYCARSDYYGSHFDYWGQGTLVTVSS VL: DIQLTQSPSSLSASVGDRVTITCRASESVDFDGFSFLAWYQQKPGKAPKLLIYDASNLETGVPSRFSGSGSGTDFTLTISSLQPEDFATYYCQQYDTLPRTFGQGTKVEIKR	–
10	0.012	1.2e+06	AG10080 (antibody, human IgG4 S228P, kappa, V domains shown, also called IgG of Fab 4217) VH: EVQLVESGGGLVQPGGSLRLSCAASGYSISSGYYWDWIRQAPGKGLEWVSSISGDGDTTYYADSVKGRFTISRDNSKNTLYLQLNSLRAEDTAVYYCAREYYGYGYALDYWGQGTLVTVSS VL: DIQLTQSPSSLSASVGDRVTITCRASQGISSYLAWYQQKPGKAPKLLIYDASSLESGVPSRFSGSGSGTDFTLTISSLQPEDFATYYCQQYYSTPLTFGQGTKVEIKR	–
6	0.003	500000	AG10124 (antibody, human IgG4 S228P, kappa, V domains shown, also called IgG of Fab 5302) VH: EVQLVESGGGLVQPGGSLRLSCAASGFSLSTGGVGVAWIRQAPGKGLEWVSSISGYGSTTYYADSVKGRFTISRDNSKNTLYLQLNSLRAEDTAVYYCAREGSDAVLGDWFGYWGQGTLVTVSS VL: DIQLTQSPSSLSASVGDRVTITCQASQDITTYLAWYQQKPGKAPKLLIYDASNRATGIPSRFSGSGSGTDFTLTISSLQPEDFATYYCQQGYYLWTFGQGTKVEIKR	–
